B1: YIR006C (protein, UniProt P32521 1-1480, looked up)
Actin cytoskeleton-regulatory …: MYNPYQQQGMGYQQQQQQQQQQPNGFYPQQQQGQSSNQPQGQPQPQQQMAFNQPQATGIGGMPQSFGNSFSSMPQQPQTGYNNNGNNGSVYGNGNFGQQPQQQQQQAKPQHTGYVPNSSMPMMNTTGTMPPPNPAQQPQLQSIQPQGTGYYQAANTANVHSVQPLQSQGTGYYVSTPNLISSNQTQQPLQAQGTGYYQSQPQQVPPPQQAQSLQPLKPQQTGFYLQPQNQAPLEPLKPTATGFVNSFANNGLNNDIKIPAIRLSFITAQDQAKFETLFRSIVTNGSNTVSGANCRKILMRSGLPPSQLARIWTLCDTSKAGELLFPEFALAMHLINDVLQGDTIPYELDSKTKNEVSSFIDAINLSIANQDSSANDAPKTPFDEFITAGVQNLQPQPTGYMPQTSFGIPLQSQITGGGVASALNPQSTGFMAPTTFNMSMNTGTPGLNPQITGGAPASMQPNITGNALQPQTTGMMPQTTGMMPQTTGMMPQTSFGVNLGPQLTGGALQSQYTGGYGSVMPQQSGPASMPNLSFNQQGLQSQLTGLQPQPTGFLPPSNFSATMPLTAQKTGFGNNEIYTKSNFNNNLIDNSSQDKISTEEKSLFYKIFETFDTQNKGLLDSPTAVEIFRKSGLNRADLEQIWNLCDINNTGQLNKQEFALGMHLVYGKLNGKPIPNVLPSSLIPSSTKLLDNLKNQLKTEPTTTKEKPSFGKIDALSYKNNDDDVLPNYRNRRKVYSAKNEEQSSFSSPSAKSVNHSSSTLQTDDISVDKTVEKKTAKPKYAGFSREINLKNIASLENEIKNISNPENCYDSSIPSDLTSRFDAIIAKLPNLFNEISTIDNEITNAKIQLYRKKNPSSIIGSGPNGEITENDRKKAKSRALLRARMSALTGKSTESEDSLSMEDEQQSAEIKRIQQENGKNQEIIKDIRSSISDISASLKSTMTGSNMISNQEFERWEFGIGLEDGVREFLDDLKSNSNKSVTESSPFVPSSTPTPVDDRSSSPSYSQFKTAEERAAYLKEQAKKRMKEKLAKFDKNRRNVTQSSRSISSENSREQPQQIAGSSNLVEPRATPFQEEKYVEVAQPTQPVQSTQPVQPTQPVQPTQPVQPTQPVQPTQPVQPTQPVQNVYNAKQESDDEDEDDEEKRLQEELKRLKLKKKADKEKRLAALRKQIEDAQNESDEEETNGKDNFGGHVNVPQAAPVAPSAAFSQNSTNAPRSVHAAVTPAAGKNSTGLPSTTMGHNPYFKDASASSTSTFDARAAEMQRRIQRGLDEDEDDGWSDEDESNNRVAVDNKVEEAKIGHPDHARAPPVTAAPLPSVTPVPPAVPVPQANTSNEKSSPIPIAPIPPSVTQEPPVPLAPPLPAVDGFQEPPIPSAPAIATAVQKSGSSTPALAGGVLPPPPPLPTQQASTSEPIIAHVDNYNGAEKGTGAYGSDSDDDVLSIPESVGTDEEEEGAQPVSTAGIPSIPPAGIPPPPPLP
B2: YLR337C (protein, UniProt P37370 1-817, looked up)
Verprolin: MAGAPAPPPPPPPPALGGSAPKPAKSVMQGRDALLGDIRKGMKLKKAETNDRSAPIVGGGVVSSASGSSGTVSSKGPSMSAPPIPGMGAPQLGDILAGGIPKLKHINNNASTKPSPSASAPPIPGAVPSVAAPPIPNAPLSPAPAVPSIPSSSAPPIPDIPSSAAPPIPIVPSSPAPPLPLSGASAPKVPQNRPHMPSVRPAHRSHQRKSSNISLPSVSAPPLPSASLPTHVSNPPQAPPPPPTPTIGLDSKNIKPTDNAVSPPSSEVPAGGLPFLAEINARRSERGAVEGVSSTKIQTENHKSPSQPPLPSSAPPIPTSHAPPLPPTAPPPPSLPNVTSAPKKATSAPAPPPPPLPAAMSSASTNSVKATPVPPTLAPPLPNTTSVPPNKASSMPAPPPPPPPPPGAFSTSSALSASSIPLAPLPPPPPPSVATSVPSAPPPPPTLTTNKPSASSKQSKISSSSSSSAVTPGGPLPFLAEIQKKRDDRFVVGGDTGYTTQDKQEDVIGSSKDDNVRPSPISPSINPPKQSSQNGMSFLDEIESKLHKQTSSNAFNAPPPHTDAMAPPLPPSAPPPPITSLPTPTASGDDHTNDKSETVLGMKKAKAPALPGHVPPPPVPPVLSDDSKNNVPAASLLHDVLPSSNLEKPPSPPVAAAPPLPTFSAPSLPQQSVSTSIPSPPPVAPTLSVRTETESISKNPTKSPPPPPSPSTMDTGTSNSPSKNLKQRLFSTGGSTLQHKHNTHTNQPDVDVGRYTIGGSNSIVGAKSGNERIVIDDSRFKWTNVSQMPKPRPFQNKTKLYPSGKGSSVPLDLTLFT
B3: YBL007C (protein, UniProt P32790 1-1244, looked up)
Actin cytoskeleton-regulatory …: MTVFLGIYRAVYAYEPQTPEELAIQEDDLLYLLQKSDIDDWWTVKKRVIGSDSEEPVGLVPSTYIEEAPVLKKVRAIYDYEQVQNADEELTFHENDVFDVFDDKDADWLLVKSTVSNEFGFIPGNYVEPENGSTSKQEQAPAAAEAPAATPAAAPASAAVLPTNFLPPPQHNDRARMMQSKEDQAPDEDEEGPPPAMPARPTATTETTDATAAAVRSRTRLSYSDNDNDDEEDDYYYNSNSNNVGNHEYNTEYHSWNVTEIEGRKKKKAKLSIGNNKINFIPQKGTPHEWSIDKLVSYDNEKKHMFLEFVDPYRSLELHTGNTTTCEEIMNIIGEYKGASRDPGLREVEMASKSKKRGIVQYDFMAESQDELTIKSGDKVYILDDKKSKDWWMCQLVDSGKSGLVPAQFIEPVRDKKHTESTASGIIKSIKKNFTKSPSRSRSRSRSKSNANASWKDDELQNDVVGSAAGKRSRKSSLSSHKKNSSATKDFPNPKKSRLWVDRSGTFKVDAEFIGCAKGKIHLHKANGVKIAVAADKLSNEDLAYVEKITGFSLEKFKANDGSSSRGTDSRDSERERRRRLKEQEEKERDRRLKERELYELKKARELLDEERSRLQEKELPPIKPPRPTSTTSVPNTTSVPPAESSNNNNSSNKYDWFEFFLNCGVDVSNCQRYTINFDREQLTEDMMPDINNSMLRTLGLREGDIVRVMKHLDKKFGRENIASIPTNATGNMFSQPDGSLNVATSPETSLPQQLLPQTTSPAQTAPSTSAETDDAWTVKPASKSESNLLSKKSEFTGSMQDLLDLQPLEPKKAAASTPEPNLKDLEPVKTGGTTVPAAPVSSAPVSSAPAPLDPFKTGGNNILPLSTGFVMMPMITGGDMLPMQRTGGFVVPQTTFGMQSQVTGGILPVQKTGNGLIPISNTGGAMMPQTTFGAAATVLPLQKTGGGLIPIATTGGAQFPQTSFNVQGQQQLPTGSILPVQKTANGLISANTGVSMPTVQRTGGTMIPQTSFGVSQQLTGGAMMTQPQNTGSAMMPQTSFNAVPQITGGAMMPQTSFNALPQVTGGAMMPLQRTGGALNTFNTGGAMIPQTSFSSQAQNTGGFRPQSQFGLTLQKTGGIAPLNQNQFTGGAMNTLSTGGVLQQQQPQTMNTFNTGGVMQELQMMTTFNTGGAMQQPQMMNTFNTDGIMQQPQMMNTFNTGGAMQQPQQQALQNQPTGFGFGNGPQQSRQANIFNATASNPFGF

Columns and labels:
Format in all cases: cell-based, Saccharomyces cerevisiae
ABP1 = assay: DHFR-PCA on solid medium, bait ABP1 (Fig. 1B); details: bait ABP1, label = prey; 2-4 replicates
From the text: (§1) Supplement 41467_2021_21873_MOESM8_ESM.xlsx, sheet "Fig1B" | column: medsize; medrep; Ratio; Score

BBC1 = assay: DHFR-PCA on solid medium, bait BBC1 (Fig. 1B); details: bait BBC1, label = prey; for medrep (log2 median colony size normalized to plate background, PCA score): 2-4 replicates; for Ratio (SH3-deleted/WT medrep): only significant differences showed, PPIs completely lost have a ratio of 0.1 and the gained PPIs 2.5
From the text: as §1

[1] = system: 575 putative partners (preys) of 22 WT SH3-containing proteins; assay: DHFR-PCA on solid medium, WT and SH3-deleted baits (Fig. 1B); design: key to Score: 0: SH3-independent; 1: SH3-dependent PPIs; 2: SH3-inhibited PPIs; details: for medrep (log2 median colony size normalized to plate background, PCA score): label = prey
Procedure, shortened: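 In S. cerevisiae, 22 SH3-containing baits fused genomically to DHFR F[1,2], either WT or with each SH3 replaced via CRISPR by a poly-Gly/Ser linker, screened against 575 DHFR F[3] preys plus 40 negative controls in 1536 arrays, preys duplicated at randomized positions.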

Abp1 PPIs = assay: DHFR-PCA of Abp1 SH3-swapped baits (Fig. 2B-D, S2C, S2F); details: Fig2B; bait ABP1, label = prey; Replicates 4
Procedure, shortened: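 Yeast DHFR-PCA in which Abp1 baits, carrying their SH3 replaced by CRISPR–Cas9 with one of 27 yeast SH3s or human CTTN, HCLS1 or DBNL SH3s, were mated against 575 SH3-associated DHFR F[3] preys plus 40 negative controls. Four tests were run per PPI. Diploids were selected twice (48 h, 30 °C), then grown 4 days on PCA selection media.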

[2] = bait SLA1-3, DHFR-PCA, Replicates 4 (2 for YCR009C, YDR388W, YIL033C)

Row | Molecule | medrep (log2 median colony size normalized to plate background, PCA score) (ABP1) | medrep (log2 median colony size normalized to plate background, PCA score) (BBC1) | Ratio (SH3-deleted/WT medrep) (BBC1) | medrep (log2 median colony size normalized to plate background, PCA score) [1, 2] | Score ([1]; bait SLA1-3, label = prey) | medrep (log2 median colony size normalized to plate background, PCA score) ([1]; bait SLA1-2, DHFR-PCA, Replicates 4 (2 for YCR009C, YDR388W)) | Score ([1]; bait SLA1-2, label = prey) | Ratio (SH3-deleted/WT medrep) ([1]; bait SLA1-2, label = prey, only significant differences shown, PPIs completely lost have a ratio of 0.1, gained PPIs 2.5) | medrep (log2 median colony size normalized to plate background) (Abp1 PPIs)
1 | B1 | 5.062 | 1.896 | 0.4416 | 4.7899 | 0 | – | – | – | –
2 | B2 | 4.481 | 2.429 | 0.57 | 4.892 | 0 | 2.095 | 1 | 0.4282 | –
3 | B3 | 4.393 | 2.803 | 0.1 | 4.843 | 0 | – | – | – | 4.393
